Results on 1 molecule are retold here after US20160216269A1 (BIOCARE MEDICAL, published 2016).

The assay concerns the target T1, SOX10 epitope peptide QGGTAAIQAHYKSAH (human).
T1 construct: One of the overlapping peptides of about 15 amino acids covering human SOX10 147-253
T1 peptide: QGGTAAIQAHYKSAH
Description: epitope mapping with overlapping SOX10 peptides, direct ELISA and dot blot. The source says: In order to determine the peptide sequence of SOX10 that is recognized by anti-SOX10 antibodies such as BC34, epitope mapping may be conducted perhaps using two assays: direct ELISA and even dot blot. In an ELISA assay, the sensitivity and specificity of the anti-SOX10 [BC34] antibody may be determined by measuring the antibody titer at about 1:500 and about 1:1000. Overlapping peptides at a length of about 15 amino acids each, covering the human SOX10 protein sequence from perhaps 147 to 253 amino acids, may be used to determine a sequence of BC34 binding.

B1: mouse monoclonal anti-SOX10 antibody BC34 (antibody, V domains shown)
VH: QVTLKESGPGILQPSQTLSLTCSFSGFSLSTFLIGVGWIRQPSGKGLEWLAHIWWNDNKYYNTALKNRLTISKDTSNNQVFLKIASVDTTDTATYYCVRMAGIGGTDAMDYWGQGTSVTVSS
VL: DIVLTQSPASLAVSLGQRATISCRASEIVEYYGTNLLQWYQQKPGQPPKLLIYAASNVESGVPARFSGSGSGTDFSLNIHPVEEDDIAIYFCQQSRKVPWTFGGGTKLEIK
notes: also called anti-SOX10 antibody [clone BC34]; SOX10 [BC34]
Regarding B1, the binding result is given as “binds”.
